Experimental data taken from IntAct's records for PubMed 20078863.

Key:
[1] = target: Thra, P63059-1
[2] = target: Thra, P63059-2
[3] = target: Thra, P63059-2; remark: listed apart in the source

Chain of Transforming acidic coiled-coil-containing protein 1 (Homo sapiens), O75410-9 L580A;I581A (O75410 other isoform, or with tags, fused parts or gaps L580A;I581A): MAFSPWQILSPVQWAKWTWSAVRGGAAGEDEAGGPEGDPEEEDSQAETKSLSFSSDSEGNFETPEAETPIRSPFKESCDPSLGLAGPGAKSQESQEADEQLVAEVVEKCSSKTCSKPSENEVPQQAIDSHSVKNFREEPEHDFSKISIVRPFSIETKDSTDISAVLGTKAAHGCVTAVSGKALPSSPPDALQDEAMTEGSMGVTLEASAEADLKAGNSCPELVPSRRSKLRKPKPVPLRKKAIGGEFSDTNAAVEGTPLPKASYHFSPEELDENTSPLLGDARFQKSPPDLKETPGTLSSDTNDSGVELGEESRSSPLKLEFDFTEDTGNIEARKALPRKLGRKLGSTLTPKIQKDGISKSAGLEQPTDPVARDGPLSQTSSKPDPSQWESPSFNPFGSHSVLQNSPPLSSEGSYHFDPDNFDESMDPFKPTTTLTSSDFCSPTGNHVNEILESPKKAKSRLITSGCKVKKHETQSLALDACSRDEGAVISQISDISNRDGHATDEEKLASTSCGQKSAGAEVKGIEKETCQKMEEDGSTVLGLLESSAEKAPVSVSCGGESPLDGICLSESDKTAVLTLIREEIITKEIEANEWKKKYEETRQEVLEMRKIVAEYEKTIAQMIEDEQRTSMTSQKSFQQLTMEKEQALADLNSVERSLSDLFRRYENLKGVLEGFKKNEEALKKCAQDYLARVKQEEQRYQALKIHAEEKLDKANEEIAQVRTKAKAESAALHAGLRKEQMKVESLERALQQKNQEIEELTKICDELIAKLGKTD
Chain of Thra, P63059-2 (P63059 other isoform, or with tags, fused parts or gaps): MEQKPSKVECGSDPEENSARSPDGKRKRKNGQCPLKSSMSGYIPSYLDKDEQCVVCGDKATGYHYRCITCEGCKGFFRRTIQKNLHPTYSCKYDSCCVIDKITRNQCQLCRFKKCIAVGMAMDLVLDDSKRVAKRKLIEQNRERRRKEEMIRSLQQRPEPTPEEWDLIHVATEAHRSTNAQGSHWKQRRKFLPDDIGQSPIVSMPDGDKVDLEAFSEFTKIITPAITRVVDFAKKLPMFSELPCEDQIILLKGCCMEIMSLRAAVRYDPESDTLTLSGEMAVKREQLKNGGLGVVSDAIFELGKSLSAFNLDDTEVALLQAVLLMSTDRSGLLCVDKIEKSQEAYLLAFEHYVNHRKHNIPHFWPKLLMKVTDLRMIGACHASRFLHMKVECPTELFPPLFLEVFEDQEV
Chain of Transforming acidic coiled-coil-containing protein 1 (Homo sapiens), O75410-10 L170A;I171A (O75410 other isoform, or with tags, fused parts or gaps L170A;I171A): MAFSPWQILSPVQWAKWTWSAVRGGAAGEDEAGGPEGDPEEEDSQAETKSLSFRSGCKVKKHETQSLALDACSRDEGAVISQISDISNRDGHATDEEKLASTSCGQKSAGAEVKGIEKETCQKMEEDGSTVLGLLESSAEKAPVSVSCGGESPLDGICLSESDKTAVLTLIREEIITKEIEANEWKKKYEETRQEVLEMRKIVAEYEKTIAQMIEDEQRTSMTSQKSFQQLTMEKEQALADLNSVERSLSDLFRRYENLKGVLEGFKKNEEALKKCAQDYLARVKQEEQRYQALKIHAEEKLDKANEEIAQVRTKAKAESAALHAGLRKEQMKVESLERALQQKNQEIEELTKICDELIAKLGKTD
Chain of Thra, P63059-1 (P63059 whole entry): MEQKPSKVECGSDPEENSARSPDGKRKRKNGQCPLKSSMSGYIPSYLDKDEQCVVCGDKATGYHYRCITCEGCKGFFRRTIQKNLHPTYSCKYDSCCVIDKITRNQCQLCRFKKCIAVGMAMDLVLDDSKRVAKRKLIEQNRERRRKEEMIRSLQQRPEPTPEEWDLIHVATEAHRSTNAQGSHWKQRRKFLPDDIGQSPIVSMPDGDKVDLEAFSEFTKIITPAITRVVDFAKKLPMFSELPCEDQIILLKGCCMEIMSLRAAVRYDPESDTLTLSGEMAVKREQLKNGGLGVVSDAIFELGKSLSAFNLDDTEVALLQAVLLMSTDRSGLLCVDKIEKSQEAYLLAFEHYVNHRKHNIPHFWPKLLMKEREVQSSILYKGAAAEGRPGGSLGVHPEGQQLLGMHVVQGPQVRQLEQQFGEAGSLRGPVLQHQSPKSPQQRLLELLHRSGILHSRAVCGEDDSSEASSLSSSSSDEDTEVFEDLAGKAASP

Substance	effect of a mutation on the interaction [1]	effect of a mutation on the interaction [2]	effect of a mutation on the interaction [3]
Transforming acidic coiled-coil-containing protein 1 (Homo sapiens), O75410-9 L580A;I581A	disrupting interaction strength	decreasing interaction strength	
Transforming acidic coiled-coil-containing protein 1 (Homo sapiens), O75410-10 L170A;I171A			disrupting interaction strength
